# Patent publication US11739132B2, “Separation moieties and methods of use thereof” (Werewolf Therapeutics, Inc., priority 2019, dated 2023)
# B1: ACP04: human p40-murine p35-6xHis (protein)
# chain: IWELKKDVYVVELDWYPDAPGEMVVLTCDTPEEDGITWTLDQSSEVLGSGKTLTIQVKEFGDAGQYTCHKGGEVLSHSLLLLHKKEDGIWSTDILKDQKEPKNKTFLRCEAKNYSGRFTCWWLTTISTDLTFSVKSSRGSSDPQGVTCGAATLSAERVRGDNKEYEYSVECQEDSACPAAEESLPIEVMVDAVHKLKYENYTSSFFIRDIIKPDPPKNLQLKPLKNSRQVEVSWEYPDTWSTPHSYFSLTFCVQVQGKSKREKKDRVFTDKTSATVICRKNASISVRAQDRYYSSSWSEWASVPCSGGGGSGGGGSGGGGSRVIPVSGPARCLSQSRNLLKTTDDMVKTAREKLKHYSCTAEDIDHEDITRDQTSTLKTCLPLELHKNESCLATRETSSTTRGSCLPPQKTSLMMTLCLGSIYEDLKMYQTEFQAINAALQNHNHQQIILDKGMLVAIDELMQSLNHNGETLRQKPPVGEADPYRVKMKLCILLHAFSTRVVTINRVMGYLSSAHHHHHH
# System: MC38 tumor cells
# Test: MC38 tumor model, IFNα and IL-12 fusion proteins (Example 27C)
# Format: in vivo, C57BL/6 mice
# Conditions: ACP31 33-330 μg, ACP11 17.5-525 μg, ACP04 2 and 10 μg
# Method: The MC38 cell line, a rapidly growing colon adenocarcinoma cell line that expresses MMP9 in vitro, was used. Using this tumor model, the ability of fusion proteins to affect tumor growth was examined.
# Mice were anaesthetized with isoflurane for implant of cells to reduce the ulcerations. 308 CR female C57BL/6 mice were set up with 5×10^5 MC38 tumor cells in 0% Matrigel sc in flank. Cell Injection Volume was 0.1 mL/mouse. Mouse age at start date was 8 to 12 weeks. Pair matches were performed when tumors reach an average size of 100-150 mm^3 and begin treatment. Body weights were taken at initiation and then biweekly to the end. Caliper measurements were taken biweekly to the end. Any adverse reactions were to be reported immediately. […] Within a group with >20% weight loss, individuals hitting the individual body weight loss endpoint were euthanized. If the group treatment related body weight loss is recovered to within 10% of the original weights, dosing resumed at a lower dose or less frequent dosing schedule. Exceptions to non-treatment body weight % recovery were allowed on a case-by-case basis. […] Animals were monitored individually. […]
# No compounds in salt form were used. […] The amount needed per week was calculated, aliquoted accordingly, and stored at −20 C. […]
# For ACP11, ACP31, ACP131, the amount needed per week was calculated, aliquoted accordingly, and stored at −20 C. […]
molecule,measurement,value
B1,Tumor volume over time,tumor volume decreasing over time in a dose-dependent manner
